For the assay, the target named is T1, 重组人IL-1β (novoprotein, CG93) (human, UniProt P01584 117-269).
T1 construct: The supplier is stated for the immunogen; also called rHuman IL-1β; hIL-1β
The assay is described as follows: Biacore SPR, antibody captured on Protein A chip, IL-1β as analyte, 1:1 Langmuir fit. (In general: In SPR one partner is held on a chip, and binding of the other changes the refractive index at the surface.)

What is called Kd is the free concentration of one partner at which half of the binding sites on the other are occupied at equilibrium, for simple one-to-one binding. A low value points to tighter binding. In general, koff refers to a measure of how fast the partners let go of each other. Read a high koff as fast dissociation. The kon is the second-order rate constant of association.

B1: 阳性对照抗体CAN (卡纳单抗, Canakinumab) (antibody, human IgG1, kappa, V domains shown)
VH: QVQLVESGGGVVQPGRSLRLSCAASGFTFSVYGMNWVRQAPGKGLEWVAIIWYDGDNQYYADSVKGRFTISRDNSKNTLYLQMNGLRAEDTAVYYCARDLRTGPFDYWGQGTLVTVSS
VL: EIVLTQSPDFQSVTPKEKVTITCRASQSIGSSLHWYQQKPDQSPKLLIKYASQSFSGVPSRFSGSGSGTDFTLTINSLEAEDAAAYYCHQSSSLPFTFGPGTKVDIKR
notes: Signal peptide added for expression is left out; also called Ilaris
B1 registered a Kd of 0.0153 nM, a koff of 6.01e-05 s⁻¹ and a kon of 3.93e+06 M⁻¹ s⁻¹.

(Values after patent publication CN115028723A (dated 2022).)
